Experimental data published in patent US20130034559A1 (AstraZeneca / MedImmune, published 2013).

Experiments:
Experiment in all cases: HTRF competition: untagged B7-H1 sample against HIS FLAG tagged human B7-H1 for labelled antibody
B7H1_F19S = biological target: T1, B7H1_F19S (human, UniProt Q9NZQ7 19-238)
T1 construct: range 19-238; also called human B7-H1 extracellular domain mutant F19S
Description: (§1) The HTRF® competition assays measured the binding of anti-B7-H1 antibody to HIS FLAG tagged B7-H1. Titration of non tagged B7-H1 samples, prepared as described above, will compete with HIS FLAG tagged B7-H1 for binding to anti-B7-H1 antibody, leading to a reduction in assay signal. […] 10 μl of B7-H1 sample was added to a 384 well low volume assay plate (Corning 3673). […] Assay plates were incubated for 4 hours at room temperature prior to reading time resolved fluorescence at 620 nm and 665 nm emission wavelengths using an EnVision plate reader (Perkin Elmer).

B7H1_R113Y = biological target: T2, B7H1_R113Y (human, UniProt Q9NZQ7 19-238)
T2 construct: range 19-238; also called human B7-H1 extracellular domain mutant R113Y
Description: as §1

B7H1_R113L = biological target: T3, B7H1_R113L (human, UniProt Q9NZQ7 19-238)
T3 construct: range 19-238; also called human B7-H1 extracellular domain mutant R113L
Description: as §1

B7H1_F19A = biological target: T4, B7H1_F19A (human, UniProt Q9NZQ7 19-238)
T4 construct: range 19-238; also called human B7-H1 extracellular domain mutant F19A
Description: as §1

B7H1_T20D = biological target: T5, B7H1_T20D (human, UniProt Q9NZQ7 19-238)
T5 construct: range 19-238; also called human B7-H1 extracellular domain mutant T20D
Description: as §1

B7H1_D122E = biological target: T6, B7H1_D122E (human, UniProt Q9NZQ7 19-238)
T6 construct: range 19-238; also called B7H1 D122E mutant
Description: as §1

B7H1_T20V = biological target: T7, B7H1_T20V (human, UniProt Q9NZQ7 19-238)
T7 construct: range 19-238; also called human B7-H1 extracellular domain mutant T20V
Description: as §1

Measured: binding result

T5 sequence (Q9NZQ7 19-238 T20D limits assumed): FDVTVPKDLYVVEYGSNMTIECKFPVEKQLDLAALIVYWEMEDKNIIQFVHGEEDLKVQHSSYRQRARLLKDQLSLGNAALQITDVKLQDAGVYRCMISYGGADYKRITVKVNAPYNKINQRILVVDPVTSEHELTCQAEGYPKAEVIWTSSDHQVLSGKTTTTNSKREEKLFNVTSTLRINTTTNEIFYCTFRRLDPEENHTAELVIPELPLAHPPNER
T4 sequence (Q9NZQ7 19-238 F19A limits assumed): as the sequence (Q9NZQ7 19-238 T20D limits assumed) above, with F1A, D2T counted along it
T6 sequence (Q9NZQ7 19-238 D122E limits assumed): as the sequence (Q9NZQ7 19-238 T20D limits assumed) above, with D2T, D104E counted along it
T3 sequence (Q9NZQ7 19-238 R113L limits assumed): as the sequence (Q9NZQ7 19-238 T20D limits assumed) above, with D2T, R95L counted along it
T7 sequence (Q9NZQ7 19-238 T20V limits assumed): as the sequence (Q9NZQ7 19-238 T20D limits assumed) above, with D2V counted along it
T2 sequence (Q9NZQ7 19-238 R113Y limits assumed): as the sequence (Q9NZQ7 19-238 T20D limits assumed) above, with D2T, R95Y counted along it
T1 sequence (Q9NZQ7 19-238 F19S limits assumed): as the sequence (Q9NZQ7 19-238 T20D limits assumed) above, with F1S, D2T counted along it

B1: 2.7A4OPT (antibody, V domains shown)
VH: EVQLVESGGGLVKPGGSLRLSCAASGFTFSTYSMNWVRQAPGKGLEWVSSISSSGDYIYYADSVKGRFTISRDNAKNSLYLQMNSLRAEDTAVYYCARDLVTSMVAFDYWGQGTLVTVSS
VL: SYELTQPPSVSVSPGQTARITCSGDALPQKYVFWYQQKSGQAPVLVIYEDSKRPSGIPERFSGSSSGTMATLTISGAQVEDEADYYCYSTDRSGNHRVFGGGTKLTVL
notes: Germlined variable domains; human IgG1-TM (L234F, L235E, P331S), lambda; also called 2.7A4OPT IgG1-TM
no binding: all assays above
